Assay results: the supplement of paper PMC10567573

B1: FBXO39 (parent)
chain: RVFKARIYTNRYETNEEDKTLQEI

Variants of: B1
Assay: protein stability index of a GFP-peptide fusion (GPS, HEK-293T) (PSI 1-6); higher = more stable
Details: c terminus: a fixed tail appended
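Also: lentivirally expressed fusions sorted by FACS into six bins by GFP to DsRed ratio, PSI derived from sequencing read proportions per bin multiplied by bin number.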

| Variant | protein stability index |
| --- | --- |
| RVFKARIYTNRLETNEEDKTLQEI | 2.1 |
| RVFKARIYTNRMETNEEDKTLQEI | 2.13 |
| RVFKARIYTNRNETNEEDKTLQEI | 3.13 |
| RVFKARIYTNRPETNEEDKTLQEI | 2.91 |
| RVFKARIYTNRQETNEEDKTLQEI | 3.88 |
| RVFKARIYTNRSETNEEDKTLQEI | 3.36 |
| RVFKARIYTNRTETNEEDKTLQEI | 3.29 |
| RVFKARIYTNRWETNEEDKTLQEI | 2.34 |
| RVFKARIYTNRYATNEEDKTLQEI | 3.08 |
| RVFKARIYTNRYDTNEEDKTLQEI | 2.48 |
| RVFKARIYTNRYFTNEEDKTLQEI | 2.07 |
| RVFKARIYTNRYGTNEEDKTLQEI | 2.81 |
| RVFKARIYTNRYHTNEEDKTLQEI | 1.85 |
| RVFKARIYTNRYITNEEDKTLQEI | 1.92 |
| RVFKARIYTNRYKTNEEDKTLQEI | 2.4 |
| RVFKARIYTNRYLTNEEDKTLQEI | 3.1 |
| RVFKARIYTNRYMTNEEDKTLQEI | 2.6 |
| RVFKARIYTNRYNTNEEDKTLQEI | 2 |
| RVFKARIYTNRYQTNEEDKTLQEI | 2.98 |
| RVFKARIYTNRYRTNEEDKTLQEI | 2.79 |
| RVFKARIYTNRYSTNEEDKTLQEI | 2.81 |
| RVFKARIYTNRYTTNEEDKTLQEI | 2.15 |
| RVFKARIYTNRYVTNEEDKTLQEI | 1.99 |
| RVFKARIYTNRYWTNEEDKTLQEI | 2.53 |

| Variant | protein stability index |
| --- | --- |
| RVFKARIYTNRYYTNEEDKTLQEI | 1.69 |
| RVFKARIYTNRYEANEEDKTLQEI | 1.65 |
| RVFKARIYTNRYECNEEDKTLQEI | 2 |
| RVFKARIYTNRYEDNEEDKTLQEI | 3.34 |
| RVFKARIYTNRYEENEEDKTLQEI | 2.62 |
| RVFKARIYTNRYEFNEEDKTLQEI | 2.52 |
| RVFKARIYTNRYEGNEEDKTLQEI | 2.29 |
| RVFKARIYTNRYEHNEEDKTLQEI | 2.5 |
| RVFKARIYTNRYEINEEDKTLQEI | 2.28 |
| RVFKARIYTNRYEKNEEDKTLQEI | 2.5 |
| RVFKARIYTNRYELNEEDKTLQEI | 3.06 |
| RVFKARIYTNRYEMNEEDKTLQEI | 3.75 |
| RVFKARIYTNRYENNEEDKTLQEI | 2.21 |
| RVFKARIYTNRYEPNEEDKTLQEI | 3.2 |
| RVFKARIYTNRYEQNEEDKTLQEI | 2.62 |
| RVFKARIYTNRYERNEEDKTLQEI | 2.36 |
| RVFKARIYTNRYESNEEDKTLQEI | 3.12 |
| RVFKARIYTNRYEVNEEDKTLQEI | 2.06 |
| RVFKARIYTNRYEWNEEDKTLQEI | 1.66 |
| RVFKARIYTNRYEYNEEDKTLQEI | 2.67 |
| RVFKARIYTNRYETAEEDKTLQEI | 2.92 |
| RVFKARIYTNRYETCEEDKTLQEI | 1.86 |
| RVFKARIYTNRYETDEEDKTLQEI | 2.86 |
| RVFKARIYTNRYETEEEDKTLQEI | 2.96 |

| Variant | protein stability index |
| --- | --- |
| RVFKARIYTNRYETFEEDKTLQEI | 1.99 |
| RVFKARIYTNRYETGEEDKTLQEI | 2.5 |
| RVFKARIYTNRYETHEEDKTLQEI | 3.27 |
| RVFKARIYTNRYETIEEDKTLQEI | 2.9 |
| RVFKARIYTNRYETKEEDKTLQEI | 2.28 |
| RVFKARIYTNRYETLEEDKTLQEI | 2.27 |
| RVFKARIYTNRYETMEEDKTLQEI | 3.15 |
| RVFKARIYTNRYETPEEDKTLQEI | 3.01 |
| RVFKARIYTNRYETQEEDKTLQEI | 2.55 |
| RVFKARIYTNRYETSEEDKTLQEI | 3.14 |
| RVFKARIYTNRYETTEEDKTLQEI | 3 |
| RVFKARIYTNRYETVEEDKTLQEI | 2.12 |
| RVFKARIYTNRYETWEEDKTLQEI | 2.61 |
| RVFKARIYTNRYETYEEDKTLQEI | 2.06 |
| RVFKARIYTNRYETNAEDKTLQEI | 2.2 |
| RVFKARIYTNRYETNCEDKTLQEI | 2.38 |
| RVFKARIYTNRYETNDEDKTLQEI | 2.88 |
| RVFKARIYTNRYETNFEDKTLQEI | 1.45 |
| RVFKARIYTNRYETNGEDKTLQEI | 2.33 |
| RVFKARIYTNRYETNHEDKTLQEI | 2.58 |
| RVFKARIYTNRYETNIEDKTLQEI | 3.1 |
| RVFKARIYTNRYETNLEDKTLQEI | 1.75 |
| RVFKARIYTNRYETNNEDKTLQEI | 1.74 |
| RVFKARIYTNRYETNPEDKTLQEI | 1.89 |

| Variant | protein stability index |
| --- | --- |
| RVFKARIYTNRYETNQEDKTLQEI | 2.08 |
| RVFKARIYTNRYETNREDKTLQEI | 2.33 |
| RVFKARIYTNRYETNSEDKTLQEI | 2.6 |
| RVFKARIYTNRYETNTEDKTLQEI | 2.28 |
| RVFKARIYTNRYETNVEDKTLQEI | 1.92 |
| RVFKARIYTNRYETNWEDKTLQEI | 2.27 |
| RVFKARIYTNRYETNYEDKTLQEI | 1.29 |
| RVFKARIYTNRYETNECDKTLQEI | 2.03 |
| RVFKARIYTNRYETNEDDKTLQEI | 3.12 |
| RVFKARIYTNRYETNEFDKTLQEI | 1.63 |
| RVFKARIYTNRYETNEGDKTLQEI | 1.4 |
| RVFKARIYTNRYETNEHDKTLQEI | 2.02 |
| RVFKARIYTNRYETNEIDKTLQEI | 1.59 |
| RVFKARIYTNRYETNEKDKTLQEI | 2.24 |
| RVFKARIYTNRYETNELDKTLQEI | 2.41 |
| RVFKARIYTNRYETNEMDKTLQEI | 1.89 |
| RVFKARIYTNRYETNENDKTLQEI | 1.98 |
| RVFKARIYTNRYETNEPDKTLQEI | 2.41 |
| RVFKARIYTNRYETNEQDKTLQEI | 2.33 |
| RVFKARIYTNRYETNERDKTLQEI | 2.43 |
| RVFKARIYTNRYETNESDKTLQEI | 2.1 |
| RVFKARIYTNRYETNETDKTLQEI | 2.83 |
